Results from patent US20260109770A1 (REMD BIOTHERAPEUTICS, published 2026).
Where two headings read alike, the source gives them in different places.

Columns and labels:
[1] = biological target: T1, human CCR4 (hCCR4) (human, UniProt P51679 1-360); experiment: flow cytometry on hCCR4-expressing CHO-K1 cells against parental CHO-K1 cells
T1 construct: whole, on cells
T1 sequence (looked up): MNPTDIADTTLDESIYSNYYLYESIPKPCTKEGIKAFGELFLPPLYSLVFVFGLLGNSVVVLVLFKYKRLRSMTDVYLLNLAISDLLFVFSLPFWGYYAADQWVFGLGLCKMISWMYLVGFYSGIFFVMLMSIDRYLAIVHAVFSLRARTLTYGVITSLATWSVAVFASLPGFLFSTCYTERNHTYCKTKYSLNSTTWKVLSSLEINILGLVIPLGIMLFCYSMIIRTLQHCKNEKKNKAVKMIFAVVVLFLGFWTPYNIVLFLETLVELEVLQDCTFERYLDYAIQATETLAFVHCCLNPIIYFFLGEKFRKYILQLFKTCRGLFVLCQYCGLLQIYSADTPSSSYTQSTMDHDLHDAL
Experimental: The antibodies were further screened for binding to human CCR4 (hCCR4) by flow cytometry. The antibodies were incubated with CHO-K1 cells and hCCR4-expressing CHO-K1 cells for 60 minutes at 4° C. The cells were washed thoroughly with PBS buffer and were then incubated with FITC-conjugated goat anti-mouse IgG Fc antibody or anti-human IgG Fc antibody. Mean Fluorescence Intensity (MFI) of antibody binding on the cells were analyzed by flow cytometry (Table 7).

[2] = biological target: T2, human C-C chemokine receptor type 8 (hCCR8) (human, UniProt P51685 1-355); experiment: cell-based or functional assay
T2 sequence (P51685 whole entry): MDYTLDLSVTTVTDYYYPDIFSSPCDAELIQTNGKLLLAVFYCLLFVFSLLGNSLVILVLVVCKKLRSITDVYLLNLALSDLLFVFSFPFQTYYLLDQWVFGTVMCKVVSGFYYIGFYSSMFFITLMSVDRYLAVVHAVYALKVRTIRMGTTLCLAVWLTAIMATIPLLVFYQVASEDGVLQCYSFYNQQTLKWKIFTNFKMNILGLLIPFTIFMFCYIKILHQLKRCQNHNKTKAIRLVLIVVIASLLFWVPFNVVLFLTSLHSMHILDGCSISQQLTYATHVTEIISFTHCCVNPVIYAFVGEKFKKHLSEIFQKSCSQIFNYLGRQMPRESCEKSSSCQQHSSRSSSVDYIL

[3] = biological target: T2, human C-C chemokine receptor type 8 …; experiment: cell-based or functional assay; remark: listed apart in the source
[4] = biological target: T3, biotinylated recombinant human CTLA-4-Fc chimera (#786704, BioLegend) (human, UniProt P16410 37-162, biotinylated); experiment: flow cytometry: hCCR8-expressing HEK293 cells pre-loaded with the antibody, washed, incubated with biotinylated human CTLA-4-Fc, detected with PE-streptavidin [panel C]
T3 construct: Bought reagent; Fc part of the bought chimera not given
T3 sequence (looked up): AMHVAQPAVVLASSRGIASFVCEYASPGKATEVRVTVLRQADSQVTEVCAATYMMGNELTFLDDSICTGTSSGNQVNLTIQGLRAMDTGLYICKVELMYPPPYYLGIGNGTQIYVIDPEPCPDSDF
Experimental: (§1) Bispecific antibodies FP578-01 and FP578-02 and anti-hCCR8 antibodies 504E12D8D12-HC1+LC1 (G34A) and 504E12D8D12-HC1+LC1 were incubated with hCCR8-expressing HEK293 cells for 1 hour at 4° C. The cells were washed and then incubated with biotinylated recombinant human CTLA-4-Fc chimera (#786704, BioLegend) for 1 hour at 4° C. After the cells were thoroughly washed, CTLA-4 was detected with phycoerythrin (PE)-conjugated streptavidin (#405203, BioLegend) by flow cytometry.

[5] = biological target: T2, human C-C chemokine receptor type 8 …; experiment: cell-based or functional assay; remark: listed apart in the source
[6] = biological target: T2, human C-C chemokine receptor type 8 …; experiment: KinExA, hCCR8-expressing cells
Experimental: (§2) Humanized antibodies 504E12D8D12-HC1+LC1 and 504E12D8D12-HC1+LC1 (G34A) were tested by the Kinetic Exclusion Assay (KinExA, Sapidyne Instruments) to determine the affinity of binding to hCCR8-overexpressing cells. Briefly, polystyrene particles (#442178, Sapidyne Instruments) were coated with goat anti-human IgG Fc-specific Fab fragment (#109-007-008, Jackson ImmunoResearch Lab) according to the manufacturer's protocol. The antibodies were incubated with serial dilutions of hCCR8-expressing HEK293 cells at room temperature overnight by gently rotating to achieve equilibrium. The final antibody concentrations were adjusted to 0.05 nM and 1 nM, respectively. The supernatants were collected and run on KinExA 3200 (Sapidyne Instruments), and the antibody was captured by the coated polystyrene particles. The captured antibody was detected with Alexa Fluor 647-conjugated goat anti-human IgG (H+L) antibody (#109-605-003, Jackson ImmunoResearch Lab). Data was recorded and analyzed using KinExA Pro software (version 4.3.20).
The affinity of bispecific antibodies FP578-01 and FP578-02 were determined by the kinetic exclusion assay as described above.

[7] = biological target: T3, biotinylated recombinant human …; experiment: flow cytometry: hCCR8-expressing HEK293 cells pre-loaded with the antibody, washed, incubated with biotinylated human CTLA-4-Fc, detected with PE-streptavidin [panel D]
Experimental: as §1

[8] = biological target: T2, human C-C chemokine receptor type 8 …; experiment: cell-based or functional assay; remark: listed apart in the source
[9] = biological target: T2, human C-C chemokine receptor type 8 …; experiment: cell-based or functional assay; remark: listed apart in the source
[10] = biological target: T2, human C-C chemokine receptor type 8 …; experiment: KinExA, hCCR8-expressing HEK293 cells
Experimental: as §2

[11] = biological target: T3, biotinylated recombinant human …; experiment: flow cytometry: hCCR8-expressing HEK293 cells pre-loaded with the antibody, washed, incubated with biotinylated human CTLA-4-Fc, detected with PE-streptavidin [panel B]
Experimental: as §1

[12] = biological target: T3, biotinylated recombinant human …; experiment: flow cytometry: hCCR8-expressing HEK293 cells pre-loaded with the antibody, washed, incubated with biotinylated human CTLA-4-Fc, detected with PE-streptavidin [panel A]
Experimental: as §1

B1: murine-human chimeric (human IgG1) antibody 531B9B1C9 (antibody, V domains shown)
VH: EVQLVESGGGLVQPKGSLKLSCAASGFSFNAYAMNWVRQAPGKGLDWVARIRSKSNNYATYYADSVKDRFTISRDDSESMLYLQMNNLKTEDTAMYFCVRQTYGSRDYAMDYWGQGTSVTVSS
VL: DVVMTQTPLSLPVSLGDQASISCRSSQSLVHSNGNTYLHWYLQKPGQSPKLLIYKVSNRFSGVPDRFSGSGSGTDFTLKISRVEAEDLGVYFCCQSTHVPPYTFGGGTKLEIKR
notes: Chimeric antibody derived from murine antibody A13 and human IgG1
- binding result [1]: no binding
- EC50 of ADCC activity (column head prints IC50 (nM)); ADCC/NFAT-reporter-Jurkat bioassay [2]: 0.028 nM
- IC50 (nM), antagonist activity measured by β-arrestin assay [3]: 2.18 nM

B2: bispecific antibody FP578-01 (CCR8/CTLA-4) (bispecific antibody, human IgG1, kappa)
heavy: not shown
light: DIVMTQTPPSLPVNPGEPASISCRSSKSLLHSNANTYLYWYLQKPGQSPQLLIYRMSNLASGVPDRFSGSGSGSDFTLKISWVEAEDVGVYYCMQHLEYPFTFGGGTKLEIKRTVAAPSVFIFPPSDEQLKSGTASVVCLLNNFYPREAKVQWKVDNALQSGNSQESVTEQDSKDSTYSLSSTLTLSKADYEKHKVYACEVTHQGLSSPVTKSFNRGEC
- binding result [4]: binds
- IC50 (nM), antagonist activity measured by β-arrestin assay [5]: 4.26 nM
- Kd [6]: 0.102 nM

B3: bispecific antibody FP578-02 (CCR8/CTLA-4) (bispecific antibody, human IgG1, kappa)
heavy: not shown
light: DIVMTQTPPSLPVNPGEPASISCRSSKSLLHSNGNTYLYWYLQKPGQSPQLLIYRMSNLASGVPDRFSGSGSGSDFTLKISWVEAEDVGVYYCMQHLEYPFTFGGGTKLEIKRTVAAPSVFIFPPSDEQLKSGTASVVCLLNNFYPREAKVQWKVDNALQSGNSQESVTEQDSKDSTYSLSSTLTLSKADYEKHKVYACEVTHQGLSSPVTKSFNRGEC
- IC50 (nM), antagonist activity measured by β-arrestin assay [5]: 3.6 nM
- binding result [7]: binds
- Kd [6]: 0.104 nM

B4: humanized antibody 41E1C2A5-HC3+LC4 (antibody, human IgG1, kappa, V domains shown)
VH: EVQLVESGGGLVQPGGSLKLSCAASGFSFNAYAMNWVRQASGKGLEWVARIRSKSNNYATYYADSVKDRFTISRDDSKNTAYLQMNSLKTEDTAVYFCVRGGTYGSSSYFDYWGQGTTVTVSS
VL: DIVMTQSPLSLPVTPGEPASIPCRSSKSLLHSNGNTYLYWFLQKPGQSPQLLIYRMSNLASGVPDRFSGSGSGTAFTLKISRVEAEDVGVYYCMQHLEYPFTFGGGTKLEIKR
- IC50 (nM), antagonist activity measured by calcium flux assay [8]: 25.3 nM

B5: humanized antibody 504E12D8D12-HC1+LC1 (antibody, human IgG1, kappa, V domains shown)
VH: EVQLVESGGGLVQPGGSLKLSCAASGFSFNTYAMNWVRQASGKGLEWVGRIRTKSNNYATYYAASVKDRFTISRDDSKNTAYLQMNSLKTEDTAVYYCTRGGSGLNYVRYFDVWGQGTTVTVSS
VL: DIVMTQTPPSLPVNPGEPASISCRSSKSLLHSNGNTYLYWYLQKPGQSPQLLIYRMSNLASGVPDRFSGSGSGSDFTLKISWVEAEDVGVYYCMQHLEYPFTFGGGTKLEIKR
- IC50 (nM), antagonist activity measured by calcium flux assay [9]: 8.6 nM
- Kd [10]: 0.072 nM
- binding result [11]: no binding

B6: humanized antibody 41E1C2A5-HC4+LC2 (antibody, human IgG1, kappa, V domains shown)
VH: EVQLVESGGGLVQPGGSLKLSCAASGFSFNAYAMNWVRQASGKGLEWVARIRSKSNNYATYYADSVKDRFTISRDDSENTAYLQMNSLKTEDTAVYFCVRGGTYGSSSYFDYWGQGTTVTVSS
VL: DIVMTQSPLSLPVTPGEPASISCRSSKSLLHSNGNTYLYWFLQKPGQSPQLLIYRMSNLASGVPDRFSGSGSGTAFTLKISRVEAEDVGVYYCMQHLEYPFTFGGGTKLEIKR
- IC50 (nM), antagonist activity measured by calcium flux assay [8]: 13.1 nM

B7: humanized antibody 504E12D8D12-HC1+LC1(G34A) (antibody, human IgG1, kappa, V domains shown)
VH: EVQLVESGGGLVQPGGSLKLSCAASGFSFNTYAMNWVRQASGKGLEWVGRIRTKSNNYATYYAASVKDRFTISRDDSKNTAYLQMNSLKTEDTAVYYCTRGGSGLNYVRYFDVWGQGTTVTVSS
VL: DIVMTQTPPSLPVNPGEPASISCRSSKSLLHSNANTYLYWYLQKPGQSPQLLIYRMSNLASGVPDRFSGSGSGSDFTLKISWVEAEDVGVYYCMQHLEYPFTFGGGTKLEIKR
- IC50 (nM), antagonist activity measured by calcium flux assay [9]: 14.4 nM
- Kd [10]: 0.072 nM
- binding result [12]: no binding
